# Article PMC10053325
# T1: GST-SMAD4^R361H, Q13485
# T1 chain: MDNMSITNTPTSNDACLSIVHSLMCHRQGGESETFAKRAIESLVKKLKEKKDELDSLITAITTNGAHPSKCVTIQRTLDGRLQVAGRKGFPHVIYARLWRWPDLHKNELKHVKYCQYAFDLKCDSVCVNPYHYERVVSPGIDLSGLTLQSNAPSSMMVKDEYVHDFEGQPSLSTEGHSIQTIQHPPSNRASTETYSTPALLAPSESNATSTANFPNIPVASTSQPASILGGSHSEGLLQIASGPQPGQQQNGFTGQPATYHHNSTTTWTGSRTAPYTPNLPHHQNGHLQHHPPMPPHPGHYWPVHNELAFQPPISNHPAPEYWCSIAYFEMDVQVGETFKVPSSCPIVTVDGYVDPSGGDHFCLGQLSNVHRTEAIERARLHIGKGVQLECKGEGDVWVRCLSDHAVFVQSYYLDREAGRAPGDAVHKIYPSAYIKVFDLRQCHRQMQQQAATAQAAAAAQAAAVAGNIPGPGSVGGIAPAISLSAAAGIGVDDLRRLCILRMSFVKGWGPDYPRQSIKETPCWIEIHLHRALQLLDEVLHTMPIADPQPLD
# B1: Venus-flag-SMAD3, P84022 1-425 (natural protein)
# chain: MSSILPFTPPIVKRLLGWKKGEQNGQEEKWCEKAVKSLVKKLKKTGQLDELEKAITTQNVNTKCITIPRSLDGRLQVSHRKGLPHVIYCRLWRWPDLHSHHELRAMELCEFAFNMKKDEVCVNPYHYQRVETPVLPPVLVPRHTEIPAEFPPLDDYSHSIPENTNFPAGIEPQSNIPETPPPGYLSEDGETSDHQMNHSMDAGSPNLSPNPMSPAHNNLDLQPVTYCEPAFWCSISYYELNQRVGETFHASQPSMTVDGFTDPSNSERFCLGLLSNVNRNAAVELTRRHIGRGVRLYYIGGEVFAECLSDSAIFVQSPNCNQRYGWHPATVCKIPPGCNLKIFNNQEFAALLAQSVNQGFEAVYQLTRMCTIRMSFVKGWGAEYRRQTVTSTPCWIELHLNGPLQWLDKVLTQMGSPSIRCSSVS
# Target: T1, GST-SMAD4^R361H, Q13485
# Experiment: pull-down
# Settings: remark: other sources report otherwise
binder,measurement,value
B1,EC50 of Go-6983 in enhancing the complex,8.9 µM
same,EC50 of Ro-31-8220 in enhancing the complex,2.1 µM
